In paper PMC11958657:

Legend:
[1] = target: L4-MHC (SIYLYYGL peptide presented by H-2K^b) (mouse | human); experiment: ultra-stable biomembrane force probe (U-BFP), force-clamp bond lifetimes; biotinylated pMHC on a streptavidin bead on a red blood cell probe against a TCR-expressing T cell without CD8; adhesion frequency below 20%; DMEM with 0.5% BSA
[2] = target: R4-MHC (SIYRYYGL peptide presented by H-2K^b) (mouse | human); experiment: as above
[3] = target: L4-MHC (SIYLYYGL peptide presented by H-2K^b) (mouse | human); experiment: ultra-stable biomembrane force probe (U-BFP), force-clamp bond lifetimes; as a3, but the T cell expresses wild-type CD8αβ beside the TCR (TCR–pMHC–CD8 tri-molecular interaction)
[4] = target: R4-MHC (SIYRYYGL peptide presented by H-2K^b) (mouse | human); experiment: as above
[5] = target: L4-MHC (SIYLYYGL peptide presented by H-2K^b) (mouse | human); experiment: micropipette single-cell adhesion frequency assay; TCR on a hybridoma T cell held by a micropipette, brought into contact with a streptavidin-coated biotinylated human RBC carrying biotinylated pMHC; bi-molecular TCR-pMHC (CD8-); zero force; 2D effective constants from the fit of adhesion frequency against contact time
[6] = target: L4-MHC (SIYLYYGL peptide presented by H-2K^b) (mouse | human)
[7] = target: R4-MHC (SIYRYYGL peptide presented by H-2K^b) (mouse | human)
[8] = target: L4-MHC (SIYLYYGL peptide presented by H-2K^b) (mouse | human); experiment: micropipette single-cell adhesion frequency assay; biotinylated pMHC on streptavidin-coated red blood cells against a TCR-expressing T cell; 2D effective binding affinity AcKa; whether CD8 was on the T cells is not stated
[9] = target: R4-MHC (SIYRYYGL peptide presented by H-2K^b) (mouse | human); experiment: as above
[10] = target: R4-MHC (SIYRYYGL peptide presented by H-2K^b) (mouse | human); remark: listed apart in the source
[11] = target: R4-MHC (SIYRYYGL peptide presented by H-2K^b) (mouse | human); experiment: ultra-stable biomembrane force probe (U-BFP), force-clamp bond lifetimes; as a3, but the 2C hybridoma cell expresses CD8 with CD8β-Ile2Ala at a level matched to WT CD8
[12] = target: L4-MHC ( peptide presented by H-2K^b) (mouse | human); experiment: SPR
[13] = target: R4-MHC ( peptide presented by H-2K^b) (mouse | human); experiment: SPR

| Substance | bond lifetime ratio R4-MHC over L4-MHC, high force regime (16–19 pN), without CD8 [2] [fold] | bond lifetime ratio R4-MHC over L4-MHC, low force regime (2–5 pN), without CD8 [2] [fold] | bond lifetime ratio R4-MHC over L4-MHC, medium force regime (9–12 pN), without CD8 [2] [fold] | bond lifetime ratio R4-MHC over L4-MHC, medium force regime (9–12 pN), with CD8 [4] [fold] | peak bond lifetime, with CD8 [4] [s] | koff [5] [s⁻¹] | 2D effective binding affinity (AcKa) [8] [μm^4] | 2D effective binding affinity (AcKa) [9] [μm^4] | Kd [12] [nM] | Kd [13] [nM] | other results |
| --- | --- | --- | --- | --- | --- | --- | --- | --- | --- | --- | --- |
| m33-TCR | 7.55 | 1.13 | 1.99 | 1.19 | 5.2 | 4.22 | 0.00089 | 0.0013 |  |  | peak bond lifetime (at ~9.62 pN), without CD8 [1]: 1.82 s; peak bond lifetime (at ~12.85 pN), without CD8 [2]: 3.43 s; CD8 enhancement power (bond lifetime with CD8 over without CD8), medium force regime [3]: 5.7 fold; peak bond lifetime, with CD8 [3]: 3.99 s; CD8 enhancement power (bond lifetime with CD8 over without CD8), medium force regime [4]: 3.4 fold; L4 peptide concentration (on RMA-S cells) at which m33 hybridoma T cells release IL-2, with CD8 [6]: 1 nM; R4 peptide concentration (on RMA-S cells) at which m33 hybridoma T cells release IL-2, without CD8 [7]: 100 pM |
| mouse CD8αβ with CD8β-Ile2Ala (from UniProt P01731 28-247; P10300 22-213) (receptor) |  |  |  |  |  |  |  |  |  |  | TCR specificity of 2C hybridoma cells (ratio of IL-2 sensitivities for R4 over L4) with CD8β-Ile2Ala [10]: 7070 |
| 2C-TCR | 5.1 | 1.3 | 3.38 | 10 | 0.8 | 6.61 | 3.7e-05 | 0.0016 |  |  | bond lifetime ratio R4-MHC over L4-MHC, medium force regime, with CD8β-Ile2Ala [11]: 4.81; fold reduction of CD8 enhancement power (CD8β-Ile2Ala against WT CD8) [11]: 2 times; peak bond lifetime, with CD8β-Ile2Ala [11]: 0.54 s; peak bond lifetime (at ~8.32 pN), without CD8 [2]: 0.3 s; CD8 enhancement power (bond lifetime with CD8 over without CD8), medium force regime [4]: 3.04 fold; IL-2 production of 2C hybridoma T cells stimulated by RMA-S cells pulsed with R4 peptide, with CD8 against without CD8 [7]: > 100 fold |
| mouse CD8αβ, wild type (from UniProt P01731 28-247; P10300 22-213) (receptor) |  |  |  |  |  |  |  |  |  |  | TCR specificity of 2C hybridoma cells (ratio of IL-2 sensitivities for R4 over L4) with WT CD8 [10]: 65500 |
| m67-TCR | 2.63 | 0.34 | 3.77 | 0.96 | 5.95 | 4.92 | 0.00099 | 0.0016 |  |  | peak bond lifetime, without CD8 [1]: 2.56 s; peak bond lifetime, without CD8 [2]: 5.94 s; CD8 enhancement power (bond lifetime with CD8 over without CD8), medium force regime [3]: 4.36 fold; peak bond lifetime, with CD8 [3]: 5.09 s; L4 peptide concentration (on RMA-S cells) at which m67 hybridoma T cells release IL-2, with CD8 [6]: 100 pM; R4 peptide concentration (on RMA-S cells) at which m67 hybridoma T cells release IL-2, without CD8 [7]: 10 nM |
| m67-TCR, soluble ectodomains |  |  |  |  |  |  |  |  | 96.2 | 26.3 |  |
| 2C-TCR, soluble ectodomains |  |  |  |  |  |  |  |  | 38200 | 20200 |  |
| m33-TCR, soluble ectodomains |  |  |  |  |  |  |  |  | 567 | 187 |  |
